Reference: article PMC3667720

Target: β-actin (human (endogenous in MDA-MB-231)) (UniProt P60709)
Assay: FRET or BRET

FRET efficiency (control siRNA, 0 min EGF): 4.34%
FRET efficiency (β1 integrin siRNA, 0 min EGF): 3.85%
increase in FRET efficiency 3 min after EGF against 0 min (control cells): 40%
Substance: cofilin (from UniProt P23528 1-166) (natural protein)
